# Assays:
# EGFR [1] = molecular target: T1, EGFR (UniProt P00533 25-645, limits assumed, biotinylated); experiment: direct bind ELISA, C-term VD;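 note: ELISA with antibody or DVD-Ig preparations applied to target antigen-coated plates for 1 h at room temperature, TMB colour development, absorbance read at 450 nm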
# T1 construct: ELISA antigen; construct not described
# RON [2] = molecular target: T2, RON (UniProt Q04912 25-571, biotinylated); experiment: direct bind ELISA, N-term VD;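 note: antibody or DVD-Ig preparations bound to immobilized target antigen on ELISA plates, 1 h at room temperature, TMB detection read as absorbance at 450 nm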
# RON [3] = molecular target: T2, RON; experiment: direct bind ELISA, C-term VD;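 note: ELISA with antibody or DVD-Ig preparations applied to target antigen-coated plates for 1 h at room temperature, TMB colour development, absorbance read at 450 nm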
# EGFR [4] = molecular target: T1, EGFR; experiment: direct bind ELISA, N-term VD;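 note: antibody or DVD-Ig preparations bound to immobilized target antigen on ELISA plates, 1 h at room temperature, TMB detection read as absorbance at 450 nm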
# IGF1R = molecular target: T3, IGF1R (UniProt P08069 31-932, limits assumed, biotinylated); experiment: direct bind ELISA, C-term VD;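 note: ELISA with antibody or DVD-Ig preparations applied to target antigen-coated plates for 1 h at room temperature, TMB colour development, absorbance read at 450 nm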
# T3 construct: ELISA antigen
EC50 (EGFR [1]) [nM],EC50 (RON [2]) [nM],EC50 (RON [3]) [nM],EC50 (EGFR [4]) [nM],EC50 (IGF1R) [nM],Binder
29.9,0.18,,,,"DVD326 (bispecific antibody, DVD-Ig; HC S, LC S; variable parts only) VH: EVQLVQSGGGLVKPGGSLRLSCAASGFTFSSYAMHWVRQAPGKGLEWVAVISYDGSNKYYADSVKGRFTISRDNSKNTLYLQMNSLRAEDTAVYYCARFSGWPNNYYYYGMDVWGQGTTVTVSSASTKGPQVQLQESGPGLVKPSQTLSLTCTVSGYSISSDFAWNWIRQPPGKGLEWMGYISYSGNTRYQPSLKSRITISRDTSKNQFFLKLNSVTAADTATYYCVTAGRGFPYWGQGTLVTVSS VL: DVVMTQSPLSLPVTPGEPASISCRSSQSLLHSNGFNYVDWYLQKPGQSPHLLIYFGSYRASGVPDRFSGSGSGTDFTLKISRVEAEDVGVYYCMQALQTPPWTFGQGTKVEIRRTVAAPDIQMTQSPSSMSVSVGDRVTITCHSSQDINSNIGWLQQKPGKSFKGLIYHGTNLDDGVPSRFSGSGSGTDYTLTISSLQPEDFATYYCVQYAQFPWTFGGGTKLEIKR"
20.7,0.18,,,,"DVD768 (bispecific antibody, DVD-Ig; HC L, LC L; variable parts only) VH: EVQLVQSGGGLVKPGGSLRLSCAASGFTFSSYAMHWVRQAPGKGLEWVAVISYDGSNKYYADSVKGRFTISRDNSKNTLYLQMNSLRAEDTAVYYCARFSGWPNNYYYYGMDVWGQGTTVTVSSASTKGPSVFPLAPQVQLQESGPGLVKPSQTLSLTCTVSGYSISSDFAWNWIRQPPGKGLEWMGYISYSGNTRYQPSLKSRITISRDTSKNQFFLKLNSVTAADTATYYCVTAGRGFPYWGQGTLVTVSS VL: DVVMTQSPLSLPVTPGEPASISCRSSQSLLHSNGFNYVDWYLQKPGQSPHLLIYFGSYRASGVPDRFSGSGSGTDFTLKISRVEAEDVGVYYCMQALQTPPWTFGQGTKVEIRRTVAAPSVFIFPPDIQMTQSPSSMSVSVGDRVTITCHSSQDINSNIGWLQQKPGKSFKGLIYHGTNLDDGVPSRFSGSGSGTDYTLTISSLQPEDFATYYCVQYAQFPWTFGGGTKLEIKR"
17.9,0.18,,,,"DVD798 (bispecific antibody, DVD-Ig; HC L, LC S; variable parts only) VH: EVQLVQSGGGLVKPGGSLRLSCAASGFTFSSYAMHWVRQAPGKGLEWVAVISYDGSNKYYADSVKGRFTISRDNSKNTLYLQMNSLRAEDTAVYYCARFSGWPNNYYYYGMDVWGQGTTVTVSSASTKGPSVFPLAPQVQLQESGPGLVKPSQTLSLTCTVSGYSISSDFAWNWIRQPPGKGLEWMGYISYSGNTRYQPSLKSRITISRDTSKNQFFLKLNSVTAADTATYYCVTAGRGFPYWGQGTLVTVSS VL: DVVMTQSPLSLPVTPGEPASISCRSSQSLLHSNGFNYVDWYLQKPGQSPHLLIYFGSYRASGVPDRFSGSGSGTDFTLKISRVEAEDVGVYYCMQALQTPPWTFGQGTKVEIRRTVAAPDIQMTQSPSSMSVSVGDRVTITCHSSQDINSNIGWLQQKPGKSFKGLIYHGTNLDDGVPSRFSGSGSGTDYTLTISSLQPEDFATYYCVQYAQFPWTFGGGTKLEIKR"
19.8,0.2,,,,"DVD828 (bispecific antibody, DVD-Ig; HC S, LC L; variable parts only) VH: EVQLVQSGGGLVKPGGSLRLSCAASGFTFSSYAMHWVRQAPGKGLEWVAVISYDGSNKYYADSVKGRFTISRDNSKNTLYLQMNSLRAEDTAVYYCARFSGWPNNYYYYGMDVWGQGTTVTVSSASTKGPQVQLQESGPGLVKPSQTLSLTCTVSGYSISSDFAWNWIRQPPGKGLEWMGYISYSGNTRYQPSLKSRITISRDTSKNQFFLKLNSVTAADTATYYCVTAGRGFPYWGQGTLVTVSS VL: DVVMTQSPLSLPVTPGEPASISCRSSQSLLHSNGFNYVDWYLQKPGQSPHLLIYFGSYRASGVPDRFSGSGSGTDFTLKISRVEAEDVGVYYCMQALQTPPWTFGQGTKVEIRRTVAAPSVFIFPPDIQMTQSPSSMSVSVGDRVTITCHSSQDINSNIGWLQQKPGKSFKGLIYHGTNLDDGVPSRFSGSGSGTDYTLTISSLQPEDFATYYCVQYAQFPWTFGGGTKLEIKR"
,,25,5.96,,"DVD325 (bispecific antibody, DVD-Ig; HC S, LC S; variable parts only) VH: QVQLQESGPGLVKPSQTLSLTCTVSGYSISSDFAWNWIRQPPGKGLEWMGYISYSGNTRYQPSLKSRITISRDTSKNQFFLKLNSVTAADTATYYCVTAGRGFPYWGQGTLVTVSSASTKGPEVQLVQSGGGLVKPGGSLRLSCAASGFTFSSYAMHWVRQAPGKGLEWVAVISYDGSNKYYADSVKGRFTISRDNSKNTLYLQMNSLRAEDTAVYYCARFSGWPNNYYYYGMDVWGQGTTVTVSS VL: DIQMTQSPSSMSVSVGDRVTITCHSSQDINSNIGWLQQKPGKSFKGLIYHGTNLDDGVPSRFSGSGSGTDYTLTISSLQPEDFATYYCVQYAQFPWTFGGGTKLEIKRTVAAPDVVMTQSPLSLPVTPGEPASISCRSSQSLLHSNGFNYVDWYLQKPGQSPHLLIYFGSYRASGVPDRFSGSGSGTDFTLKISRVEAEDVGVYYCMQALQTPPWTFGQGTKVEIRR"
,,6.57,6.28,,"DVD827 (bispecific antibody, DVD-Ig; HC S, LC L; variable parts only) VH: QVQLQESGPGLVKPSQTLSLTCTVSGYSISSDFAWNWIRQPPGKGLEWMGYISYSGNTRYQPSLKSRITISRDTSKNQFFLKLNSVTAADTATYYCVTAGRGFPYWGQGTLVTVSSASTKGPEVQLVQSGGGLVKPGGSLRLSCAASGFTFSSYAMHWVRQAPGKGLEWVAVISYDGSNKYYADSVKGRFTISRDNSKNTLYLQMNSLRAEDTAVYYCARFSGWPNNYYYYGMDVWGQGTTVTVSS VL: DIQMTQSPSSMSVSVGDRVTITCHSSQDINSNIGWLQQKPGKSFKGLIYHGTNLDDGVPSRFSGSGSGTDYTLTISSLQPEDFATYYCVQYAQFPWTFGGGTKLEIKRTVAAPSVFIFPPDVVMTQSPLSLPVTPGEPASISCRSSQSLLHSNGFNYVDWYLQKPGQSPHLLIYFGSYRASGVPDRFSGSGSGTDFTLKISRVEAEDVGVYYCMQALQTPPWTFGQGTKVEIRR"
,,1.16,4.56,,"DVD797 (bispecific antibody, DVD-Ig; HC L, LC S; variable parts only) VH: QVQLQESGPGLVKPSQTLSLTCTVSGYSISSDFAWNWIRQPPGKGLEWMGYISYSGNTRYQPSLKSRITISRDTSKNQFFLKLNSVTAADTATYYCVTAGRGFPYWGQGTLVTVSSASTKGPSVFPLAPEVQLVQSGGGLVKPGGSLRLSCAASGFTFSSYAMHWVRQAPGKGLEWVAVISYDGSNKYYADSVKGRFTISRDNSKNTLYLQMNSLRAEDTAVYYCARFSGWPNNYYYYGMDVWGQGTTVTVSS VL: DIQMTQSPSSMSVSVGDRVTITCHSSQDINSNIGWLQQKPGKSFKGLIYHGTNLDDGVPSRFSGSGSGTDYTLTISSLQPEDFATYYCVQYAQFPWTFGGGTKLEIKRTVAAPDVVMTQSPLSLPVTPGEPASISCRSSQSLLHSNGFNYVDWYLQKPGQSPHLLIYFGSYRASGVPDRFSGSGSGTDFTLKISRVEAEDVGVYYCMQALQTPPWTFGQGTKVEIRR"
,,,3.59,2.77,"DVD775 (bispecific antibody, DVD-Ig; HC L, LC L; variable parts only) VH: QVQLQESGPGLVKPSQTLSLTCTVSGYSISSDFAWNWIRQPPGKGLEWMGYISYSGNTRYQPSLKSRITISRDTSKNQFFLKLNSVTAADTATYYCVTAGRGFPYWGQGTLVTVSSASTKGPSVFPLAPEVQLLESGGGLVQPGGSLRLSCTASGFTFSSYAMNWVRQAPGKGLEWVSAISGSGGTTFYADSVKGRFTISRDNSRTTLYLQMNSLRAEDTAVYYCAKDLGWSDSYYYYYGMDVWGQGTTVTVSS VL: DIQMTQSPSSMSVSVGDRVTITCHSSQDINSNIGWLQQKPGKSFKGLIYHGTNLDDGVPSRFSGSGSGTDYTLTISSLQPEDFATYYCVQYAQFPWTFGGGTKLEIKRTVAAPSVFIFPPDIQMTQFPSSLSASVGDRVTITCRASQGIRNDLGWYQQKPGKAPKRLIYAASRLHRGVPSRFSGSGSGTEFTLTISSLQPEDFATYYCLQHNSYPCSFGQGTKLEIKR"

# Reference: patent publication US20110263827A1 (AbbVie / Abbott, published 2011)
